From US20040248790A1, “Novel secretory proteins and dna thereof” (priority 2001, published 2004) come the findings set out here.

Common to all, as to type: cell-based
Assay [1] concerns mock CHO cells. The experiment in a line: cAMP production-suppressing activity in mock CHO cells (control). The following applies: mock CHO cells as the control; forskolin. As for the experimental part: (§1) AQ27-expressing CHO cells (FIG. 24) established by a method known per se and mock CHO cells (FIG. 25) serving as a control were plated on a 96-well plate (Becton Dickinson Company, Ltd.) at a density of 4×10^4 cells/well and cultured overnight. The assay buffer used was a buffer prepared by adding 0.1% bovine serum albumin and 0.2 mM 3-isobutyl-1-methylxanthine to a Hanks' balanced salt solution. The cells were washed twice with the assay buffer and pre-incubated at 37° C. for 30 minutes. The cells were washed again twice with the assay buffer, and a sample prepared in the assay buffer was added thereto, and the cells were incubated at 37° C. for 30 minutes. To evaluate the cAMP production-suppressing activity, a sample composed exclusively of 2 μM forskolin (FSK, Wako Pure Chemical Industries, Ltd.) promoting production of cAMP and a sample containing 2 μM FSK and 10^−7 to 10^−5 M novel polypeptide F: Arg-Lys-Lys-Gly-Gly-Phe-Ser-Phe-Arg-Phe-NH2 (positions 124 to 133 in SEQ ID NO: 23) were compared. A supernatant of the cells was discarded, and the amount of cAMP produced in the cells was measured by cAMP Screen System (Applied Biosystems).

Assay [2] concerns the target T1, AQ27 (Homo sapiens, UniProt Q96P65).
T1 sequence (Q96P65 1-431): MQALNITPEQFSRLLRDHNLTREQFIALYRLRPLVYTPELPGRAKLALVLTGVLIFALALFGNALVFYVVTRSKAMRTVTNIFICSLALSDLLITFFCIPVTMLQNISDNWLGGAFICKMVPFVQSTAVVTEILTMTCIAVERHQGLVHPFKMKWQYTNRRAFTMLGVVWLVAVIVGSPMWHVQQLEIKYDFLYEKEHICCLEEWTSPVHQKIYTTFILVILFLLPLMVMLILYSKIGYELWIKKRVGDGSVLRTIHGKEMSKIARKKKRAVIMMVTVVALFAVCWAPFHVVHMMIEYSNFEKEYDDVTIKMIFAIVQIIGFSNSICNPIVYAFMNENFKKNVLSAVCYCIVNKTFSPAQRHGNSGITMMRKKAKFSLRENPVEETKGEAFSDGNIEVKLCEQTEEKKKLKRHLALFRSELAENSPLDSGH
The assay can be described thus: CRE-luciferase reporter gene assay in HEK 293 cells transiently expressing AQ27 receptor. On the set-up: expressed in transfected cells; host or cells: HEK 293 cells, transient, vector pAKKO-111H, co-transfected with pCRE-Luc. The following applies: pCRE-Luc reporter, peptide 10, 1 and 0.1 μM in Example 9, 4 hours. The text has this:
(§2) The specific stimulating activity of novel polypeptides F synthesized in Example 8 on AQ27 receptor (SEQ ID NO: 31) and human OT7T022 receptor (SEQ ID NO: 35) was detected by using, as an indicator, the amount of a reporter gene product (luciferase) produced by induction of expression of a cAMP response element (CRE) promoter.
The HEK 293 cells were suspended in a growth medium (DMEM [Dulbecco's Modified Eagle Medium] (Gibco BRL) containing 10% fetal bovine serum (Gibco BRL)), and plated at a density of 1×10^5 cells/well on a black 96-well plate (Becton Dickinson Company, Ltd.) coated with collagen. After the cells were cultured overnight at 37° C. in 5% CO2, the cells were transfected in the following manner with a reporter gene-containing plasmid pCRE-Luc (Clontech) and simultaneously with an expression vector plasmid prepared by inserting AQ27 gene (SEQ ID NO: 32) and human OT7T022 gene (SEQ ID NO: 36) by a known method into an animal cell expression vector pAKKO-111H (the same plasmid vector as pAKKO-1.11H described in Biochem. Biophys. Acta, Hinuma, S. et al., 1219, 251-259, 1994) or with the intact pAKKO-111H not containing AQ27 gene.
OPTI-MEM-I (Gibco BRL) and Lipofectamine™ 2000 Reagent (Gibco BRL) were mixed in a ratio of 24:1 to prepare a Lipofectamine dilution. Separately, OPTI-MEM-I, AQ27 expression vector plasmid or the intact vector plasmid (240 ng/μl) and pCRE-Luc (240 ng/μl) were mixed in a ratio of 24:0.9:0.1 to prepare a DNA dilution. The Lipofectamine dilution and the DNA dilution were mixed in equal amounts and left for 20 minutes at room temperature, to form a DNA/Lipofectamine complex, and 25 μl of the complex was added to the plate where the HEK 293 cells were cultured, and the cells were further cultured overnight at 37° C. in 5% CO2.
(§3) The HEK 293 cells thus transfected were washed with an assay medium (DMEM containing 0.1% bovine serum albumin), and then each of novel polypeptides F synthesized in Example 8, diluted with the assay buffer, was added at concentrations of 10, 1 and 0.1 μM respectively to the cells which were then cultured at 37° C. in 5% CO2 for 4 hours. The culture supernatant was discarded, and 50 μl Pikka Gene LT2.0 (Toyo Ink Mfg. Co., Ltd.), that is, a substrate for measurement of luciferase activity, was added thereto, and the fluorescence of luciferase was measured with a plate reader (ARVO sx multilabel counter, Wallac).
First, full-length human novel secretory protein F gene (SEQ ID NO: 24) was introduced in a usual manner into an expression vector […]. […] The AQ27-specific activity was detected by using an indicator the amount of the reporter gene product (luciferase) produced by induction with expression of cAMP response element (CRE) promoter.

Assay [3] concerns the target T1, AQ27. The assay can be described thus: Intracellular calcium ion release (FLIPR) in AQ27-expressing CHO cells. On the set-up: expressed in transfected cells; host or cells: CHO cells. The note with it: for peptide concentration at which intracellular calcium ion mobilizing activity was recognized in CHO-AQ27: AQ27-expressing CHO cells; for activity in promoting intracellular calcium ion release in AQ27-expressing CHO cells: peptide 10 μM and 1 μM compared with absence of the sample, Fluo 3-AM. As for the experimental part: AQ27-expressing CHO cells established by a method known per se were plated on a 96-well black culture plate (Costar) at a density of 4×10^4 cells/well and cultured overnight. The assay buffer used was a buffer prepared by adding 20 mM HEPES, pH 7.4 (Dojin Kagaku) and 2.5 mM probenecid (Sigma) to a Hanks' balanced salt solution (HBSS). The medium for the cells were removed, and a solution prepared by adding 4 μM Fluo 3-AM (Dojindo) and 0.04% pluronic acid (Molecular Probes) to the assay buffer was added thereto and incubated at 37° C. for 1 hour. The cells were washed with the assay buffer to remove an excess of Fluo 3 and set in FLIPR (Molecular Devices). A sample dissolved in the assay buffer was also set in FLIPR, and the sample was added to the cells by a built-in manipulator, and a change in fluorescence depending on the concentration of intracellular calcium ions generated by irradiation with an excitation light was measured. As a result, the reactions shown in FIGS. 26 and 27 were detected respectively in the presence of novel peptide F: Arg-Lys-Lys-Gly-Gly-Phe-Ser-Phe-Arg-Phe-NH2 (positions 124 to 133 (RKKGGFSFRF—NH2) in SEQ ID NO: 23) and novel polypeptide F: Gly-Gly-Phe-Ser-Phe-Arg-Phe-NH2 (positions 127 to 133 (GGFSFRF—NH2) in SEQ ID NO: 23) in an amount of 10 μM (▴) and 1 μM (□), as compared with the absence of the sample (◯), and the activity of each peptide in promoting intracellular calcium ion release in the AQ27-expressing CHO cells was detected.

Assay [4] concerns the target T1, AQ27. The experiment in a line: cAMP production-suppressing activity in AQ27-expressing CHO cells. On the set-up: expressed in transfected cells; host or cells: CHO cells. The following applies: 2 μM forskolin; for cAMP production induced by FSK in AQ27-expressing CHO: 30 minutes at 37° C., 10^−7 to 10^−5 M peptide in Example 12. As for the experimental part:
as §1

Assay [5] relates to mock CHO cells. The assay can be described thus: Intracellular calcium ion change (FLIPR) in mock CHO cells (control). The following applies: mock CHO cells as the control.
The target in the next assay is T2, human OT7T022 receptor (Homo sapiens, UniProt Q9GZQ6).
T2 construct: expressed in transfected cells; host or cells: HEK 293 cells, transient, vector pAKKO-111H, co-transfected with pCRE-Luc
T2 sequence (Q9GZQ6 whole entry): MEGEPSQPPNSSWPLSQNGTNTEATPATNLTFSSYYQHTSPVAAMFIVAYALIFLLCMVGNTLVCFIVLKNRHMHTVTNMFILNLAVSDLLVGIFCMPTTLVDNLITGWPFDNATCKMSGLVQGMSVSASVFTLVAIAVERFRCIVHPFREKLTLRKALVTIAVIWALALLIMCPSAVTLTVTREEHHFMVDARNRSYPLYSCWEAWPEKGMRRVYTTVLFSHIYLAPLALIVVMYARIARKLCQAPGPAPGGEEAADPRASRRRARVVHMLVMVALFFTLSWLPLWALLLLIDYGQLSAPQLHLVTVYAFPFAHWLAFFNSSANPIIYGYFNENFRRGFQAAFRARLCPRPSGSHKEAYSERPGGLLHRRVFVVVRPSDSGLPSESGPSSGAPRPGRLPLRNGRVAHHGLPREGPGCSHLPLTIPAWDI
The assay can be described thus: CRE-luciferase reporter gene assay in HEK 293 cells transiently expressing OT7T022 receptor. The following applies: HEK 293 cells transiently expressing human OT7T022 receptor; pCRE-Luc reporter; peptide 10, 1 and 0.1 μM in Example 9.
Excerpt: as §2
The HEK 293 cells were suspended in a growth medium (DMEM [Dulbecco's Modified Eagle Medium] (Gibco BRL) containing 10% fetal bovine serum (Gibco BRL)), and plated at a density of 1×10^5 cells/well on a black 96-well plate (Becton Dickinson Company, Ltd.) coated with collagen. […]
as §3

Where no end group is shown, it is not given here.

Turning to “Ala-Ser-Gln-Pro-Gln-Ala-Leu-Leu-Val-Ile-Ala-Arg-Gly-Leu-Gln-Thr-Ser-Gly-Arg-Glu-His-Ala-Gly-Cys-Arg-Phe-NH2 (ASQPQALLVIARGLQTSGREHAGCRF-NH2) [A1-F28-NH2]”, the “cAMP production-suppressing activity in mock CHO cells” value in the assay on mock CHO cells [1] is “not recognized”. Further, in the assay with AQ27 [2], the “activity of luciferase stimulated by adding forskolin (FSK), AQ27 receptor” value (“activity … AQ27 receptor” for short) was “increase in luciferase activity”. Further, in the assay with AQ27 [3], the “peptide concentration at which intracellular calcium ion mobilizing activity was recognized in CHO-AQ27” value is “at least 10^−6 M”. Besides, the “peptide concentration at which FSK-induced cAMP production was suppressed in AQ27-expressing CHO” value in the assay with AQ27 [4] (AQ27-expressing CHO cells) is “at least 10 M”. In addition, the “intracellular calcium ion mobilizing activity in mock CHO cells” value with mock CHO cells [5] was “not recognized”.

Consider “Arg-Lys-Lys-Gly-Gly-Phe-Ser-Phe-Arg-Phe-NH2 (RKKGGFSFRF-NH2)”, for which the “activity … AQ27 receptor” value in the assay with AQ27 [2] was “increasing the luciferase activity”. The “activity in promoting intracellular calcium ion release in AQ27-expressing CHO cells” value with AQ27 [3] is given as “detected”. Also, in the assay with AQ27 [4], the “cAMP production induced by FSK in AQ27-expressing CHO” value is listed as “suppressed”. For the same substance, in the assay with human OT7T022 receptor, the “activity of luciferase stimulated by adding FSK, human OT7T022 receptor” value was “suppressing the luciferase activity”.

In the case of “Gly-Gly-Phe-Ser-Phe-Arg-Phe-NH2 (GGFSFRF-NH2)”, in the assay with AQ27 [3], the “activity in promoting intracellular calcium ion release in AQ27-expressing CHO cells” value is recorded as “detected”.

As for “Pyr-Asp-Glu-Gly-Ser-Glu-Ala-Thr-Gly-Phe-Leu-Pro-Ala-Ala-Gly-Glu-Lys-Thr-Ser-Gly-Pro-Leu -Gly-Asn-Leu-Ala-Glu-Glu-Leu-Asn-Gly-Tyr-Ser-Arg-Lys-Lys-Gly-Gly-Phe-Ser-Phe Arg-Phe-NH2 (QDEGSEATGFLPAAGEKTSGPLGNLAEELNGYSRKKGGFSFRF; N-terminal pyroglutamate, C-terminal amide; Human) [Pyr1-F43-NH2]”, the “cAMP production-suppressing activity in mock CHO cells” value in the assay with mock CHO cells [1] is “not recognized”. In the assay with AQ27 [2], the “activity … AQ27 receptor” value is “increase in luciferase activity”. In addition, the “peptide concentration at which intracellular calcium ion mobilizing activity was recognized in CHO-AQ27” value in the assay with AQ27 [3] was “at least 10^−8 M”. Also, the “cAMP production induced by FSK in AQ27-expressing CHO” value with AQ27 [4] was “suppressed”. Further, the “intracellular calcium ion mobilizing activity in mock CHO cells” value with mock CHO cells [5] is reported as “not recognized”.

On to “Thr-Ser-Gly-Pro-Leu-Gly-Asn-Leu-Ala-Glu-Glu-Leu-Asn-Gly-Tyr-Ser-Arg-Lys-Lys-Gly-Gly-Phe-Ser-Phe Arg-Phe-NH2 (TSGPLGNLAEELNGYSRKKGGFSFRF-NH2) [T1-F26-NH2]”, for which, in the assay with AQ27 [2], the “activity … AQ27 receptor” value is recorded as “increase in luciferase activity”.
